Data published in the supplement of paper PMC7125110.
± gives the standard error. For some assays here: This sample holds only a part of the variants without activity.

B1: glmS ribozyme (parent)
chain: AUAAAAGCGCCAGAACUACAGAAAUGUAGUUGACGAGGAGGAGGUUUAUCGAAUUUUCGGCGGAUGCCUCCAAA

What was measured:
Details in all cases: with glucosamine-6-phosphate
glucosamine-6-phosphate [1] = variants of: B1; experiment: kcat; higher = faster cleavage; RNA array
Procedure, shortened: (§1)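 Glucosamine-6-phosphate, from 40 μM to 10 mM in HEPES/KCl/Mg(OAc)2 buffer, was flowed over sequenced MiSeq chips carrying barcoded ribozyme variants transcribed in situ by E. coli RNA polymerase. A hybridised Cy3 probe tracked the variants at 37 °C as tiles were imaged over ~14 h. kobs, kcat and KM were obtained by fitting normalised per-tile medians to exponential decays and then applying weighted Michaelis–Menten fits across concentrations.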

glucosamine-6-phosphate [2] = variants of: B1; experiment: KM; higher = weaker cofactor use; RNA array
Procedure, shortened: as §1

glucosamine-6-phosphate [3] = variants of: B1; experiment: self-cleavage kobs at 40 uM GlcN6P; higher = faster cleavage; RNA array
Procedure, shortened: as §1

glucosamine-6-phosphate [4] = variants of: B1; experiment: self-cleavage kobs at 160 uM GlcN6P; higher = faster cleavage; RNA array
Procedure, shortened: as §1

glucosamine-6-phosphate [5] = variants of: B1; experiment: self-cleavage kobs at 640 uM GlcN6P; higher = faster cleavage; RNA array
Procedure, shortened: as §1

glucosamine-6-phosphate [6] = variants of: B1; experiment: self-cleavage kobs at 2500 uM GlcN6P; higher = faster cleavage; RNA array
Procedure, shortened: as §1

glucosamine-6-phosphate [7] = variants of: B1; experiment: self-cleavage kobs at 10000 uM GlcN6P; higher = faster cleavage; RNA array
Procedure, shortened: as §1

Variant	kcat (glucosamine-6-phosphate [1]) [s⁻¹]	KM (glucosamine-6-phosphate [2]) [mM]	self-cleavage kobs at 40 uM GlcN6P (glucosamine-6-phosphate [3]) [s⁻¹]	self-cleavage kobs at 160 uM GlcN6P (glucosamine-6-phosphate [4]) [s⁻¹]	self-cleavage kobs at 640 uM GlcN6P (glucosamine-6-phosphate [5]) [s⁻¹]	self-cleavage kobs at 2500 uM GlcN6P (glucosamine-6-phosphate [6]) [s⁻¹]	self-cleavage kobs at 10000 uM GlcN6P (glucosamine-6-phosphate [7]) [s⁻¹]
G29A U54G	0.00345 ± 0.00074	2.79 ± 0.83	5.97e-05 ± 1.1e-05	0.000165 ± 2.7e-05	0.000767 ± 0.00012	0.00138 ± 0.00023	0.00293 ± 0.00042
U31G G60A	1.46e-05 ± 6.5e-06						
G13U G32A	0.00326 ± 0.00047	3.53 ± 0.71	4.41e-05 ± 7.3e-06	0.000153 ± 1.8e-05	0.000465 ± 5e-05	0.00124 ± 0.00013	0.00258 ± 0.00026
C10A U54G	< 1e-05		< 1e-05				
G32C G43U	< 1e-05		< 1e-05	< 1e-05	< 1e-05		< 1e-05
G38U G62A	< 1e-05			< 1e-05			
U45G U46C	0.0148 ± 0.0013	3.53 ± 0.44	0.000173 ± 2.8e-05	0.00068 ± 0.00013	0.0019 ± 0.00046	0.00634 ± 0.001	0.011 ± 0.0013
G40C C70U C71G	0.00208 ± 0.00091		0.000192 ± 2.7e-05	0.000296 ± 8.3e-05	0.000624 ± 0.00016	0.00208 ± 0.00051	0.00243 ± 0.00039
U45G C68U	0.00118 ± 0.00032	5.19 ± 2.4		5.23e-05 ± 1.3e-05	0.000145 ± 2.5e-05	0.000287 ± 5.6e-05	0.000826 ± 8.4e-05
U46G G66A C70G	0.000845 ± 0.00032		6.36e-05 ± 1.7e-05		0.000267 ± 6.1e-05	0.00046 ± 0.00016	0.000907 ± 0.00016
G38U G40A	< 1e-05						
U30A A53U	0.00525 ± 0.00098	1.86 ± 0.48	0.000128 ± 1.8e-05	0.00035 ± 7.7e-05	0.00135 ± 0.00021	0.00272 ± 0.00042	0.00523 ± 0.001
A6U G60A	< 1e-05				< 1e-05		
C50U G66U	1.12e-05 ± 2.8e-06				< 1e-05		
A6C C10U C67G U69A	2.09e-05 ± 8.6e-06						
C16A U46C	6.68e-05 ± 1.4e-05		< 1e-05			5.11e-05 ± 1.4e-05	5.46e-05 ± 1e-05
C16A U46A	7.31e-05 ± 2e-06	0.547 ± 0.078				6.28e-05 ± 2e-05	6.82e-05 ± 1.6e-05
C50G U54A	3.07e-05 ± 1e-05		2.88e-05 ± 1.2e-05	5.21e-05 ± 1.6e-05		5.55e-05 ± 2.3e-05	
U31G A64C	2.01e-05 ± 3.9e-06						
